Results taken from article PMC2602770.

T1: GST-AtGRP8-RQ (Arabidopsis thaliana, UniProt Q03251 1-169, R47Q)
T1 sequence: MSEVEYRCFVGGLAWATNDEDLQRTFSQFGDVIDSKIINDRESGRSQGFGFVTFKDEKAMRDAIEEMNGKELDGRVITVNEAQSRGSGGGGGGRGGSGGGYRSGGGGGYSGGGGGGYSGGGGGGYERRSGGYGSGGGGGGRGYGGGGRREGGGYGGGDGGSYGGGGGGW

T2: GST-AtGRP8 (WT) (Arabidopsis thaliana, UniProt Q03251 1-169)
T2 sequence: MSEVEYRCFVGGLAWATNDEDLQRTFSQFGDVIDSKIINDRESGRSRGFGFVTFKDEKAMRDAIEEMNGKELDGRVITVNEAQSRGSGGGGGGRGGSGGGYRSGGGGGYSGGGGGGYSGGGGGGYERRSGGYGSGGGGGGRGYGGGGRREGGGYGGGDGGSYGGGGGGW


Tests used:
[1] = molecular target: T1, GST-AtGRP8-RQ; assay: EMSA
[2] = molecular target: T2, GST-AtGRP8 (WT); assay: EMSA
[3] = molecular target: T2, GST-AtGRP8 (WT); assay: EMSA; remark: listed apart in the source
[4] = molecular target: T2, GST-AtGRP8 (WT); assay: competition

Row | Binder | Kd [1] [nM] | Kd [2] [nM] | binding signal [3] | binding result [4]
1 | GUUUUUGGUUUAGAUUUGGUUUUGUGU (ssRNA) [8-UTR_WT] | 1310 | 205 | – | –
2 | CGUUUGGUUUACUUUUUUGAUGAAACA (ssRNA) [8-UTR_938] | – | – | ~10 fold lower affinity than 8-UTR_WT | –
3 | GUUCAAUUUUAUUAAAUUAUUUUACUGAUCUG (ssRNA) [7-intron_G6mut] | – | – | – | no binding
4 | GUUCAGUUUUGUUGGAUUGUUUUGCUGAUCUG (ssRNA) [7-intron_WT] | 3590 | 426 | – | –
5 | AUUUUGUUCUGGUUCUGCUUUAGAUUUGAUCU (ssRNA) [7-UTR_WT] | 3220 | 318 | – | –
6 | CUUCCACGAUUGUUUUUGCUGAUGUGU (ssRNA) [8-intron_WT] | 22900 | 1640 | – | –
